This is an account of results in patent publication US20150044209A1.

The target of one experiment is human IGF-2 (human) (UniProt P01344). Nature of the experiment: SPR, multi-cycle, Trap flowed over amine-coupled ligand, 1:1 kinetic model, n=4.
For another experiment, the target named is mouse IGF-1 (mouse) (UniProt P05017). The description is as above.
Experiment [1] concerns the target human insulin (human) (UniProt P01308). Nature of the experiment: SPR (Biacore 3000), multi-cycle, insulin titrated over amine-coupled Trap, steady-state affinity model, n=4.
Experiment [2] concerns the target ligand-immobilized surfaces (hIGF-I, mIGF-I and hIGF-II). Briefly: SPR, multi-cycle, Trap flowed over ligand-immobilized surfaces; ligand not named.
Experiment [3] deals with human insulin (human) (UniProt P01308). Nature of the experiment: SPR (Biacore 3000), multi-cycle, insulin titrated over amine-coupled Trap, steady-state affinity model, n=4; insulin titrated over immobilized Trap B; steady-state affinity model; n = 4.
Chain of human insulin (human) (P01308 25-54 limits assumed, chain 1 of 2): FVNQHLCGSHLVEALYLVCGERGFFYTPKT
Chain of human insulin (human) (P01308 90-110 limits assumed, chain 2 of 2): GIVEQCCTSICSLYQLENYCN

Chain of mouse IGF-1 (mouse) (P05017 49-118 limits assumed): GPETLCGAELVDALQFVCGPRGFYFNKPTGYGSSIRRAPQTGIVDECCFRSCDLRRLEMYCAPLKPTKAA
Chain of human IGF-2 (human) (P01344 25-91 limits assumed): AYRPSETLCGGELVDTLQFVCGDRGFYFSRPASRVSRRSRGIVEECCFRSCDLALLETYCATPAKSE

“Trap D: h-sIGF1R, purified from CHO cells by calcium hydroxyapatite (CHT) column followed by gel filtration (GF) (from UniProt P08069 31-935) (receptor)”: the Kd with human IGF-2 (human) amounted to 0.016 µM; with mouse IGF-1 (mouse), 0.01 µM; in the experiment with human insulin (human) [1] it was 16 µM.

“Trap G: h-sIGF1R-Fc, purified from CHO cells using protein A, pH 3.5 elution (Fc fusion)” displayed a koff in experiment [2] of 0.00015 s⁻¹.

In experiment [2], “Trap F: h-sIGF1R-Fc, purified from CHO cells using protein A, pH 4.0 elution (Fc fusion)” came in with an off-rate constant (koff) of 0.00043 s⁻¹.

In the case of “Trap B: His-tagged h-sIGF1R purified from 293 cells (from UniProt P08069 31-935) (receptor)”, in the experiment with human insulin (human) [3], the Kd stood at 10 µM.
